Test results reported in the DeepSol protein solubility set.

Experiment: soluble on expression in E. coli; label from the status in PepcDB or PDB records

Row | Sequence | soluble on expression in E. coli
1 | MDHHHHHHHHASENLYFQGHMNLDLAYRSFVLGVAGHPQVERLIKHRAKGLVRRYVAGETLEEALKAAEALEREGVHAILDLLGEMVRTEEEARAFQRGLLELVWALAGKPWPKYISLKLTQLGLDLSEDLALALLREVLREAEPRGVFVRLDMEDSPRVEATLRLYRALREEGFSQVGIVLQSYLYRTEKDLLDLLPYRPNLRLVKGAYREPKEVAFPDKRLIDAEYLHLGKLALKEGLYVAFATHDPRIIAELKRYTEAMGIPRSRFEFQFLYGVRPEEQRRLAREGYTVRAYVPYGRDWYPYLTRRIAERPENLLLVLRSLVSG | soluble
2 | MKRKPAVAGYFYPERKDELYSLLSSFAIPEQHVSGTIIGAVVPHAGIIYSGRTAMYSYRAIEKSAVRDFVIIGPNHRPLTPYASLYPEGEWSTPLGDALINDRMAEALYRDSNYIVKDEESHLMEHSVEVQIPFLQYLFGDGFRFVPVILGDQEIDVARDIGEAIMKIEDPFIFIASSDFTHYEDAKRVEKKDMDLISAILTLDLDKFYSVLEKENVTACGYGAIAALMYYTKKRGGRMIFLNHSNSGDVTGDYSEVVGYASLVSVIPLEHHHHHH | soluble
3 | MGSDKIHHHHHHMKVVSLLTDFGDFYPGVMKGVILSLAPEARIVDITHSVEPQNILQGAFLLYHSFRYFRNAVHVAVVDPGVGSERRALVIEGKNHFFVGPDNGILYPSAVEDGIKAAYSIKEEISELVGELSSTFHGRDIFAPAAAMVVRGDYTYFEEINKEELEKLELFDCSIQGNKVRCRVVYVDRFGNVVTNLREVKGKGFYFRGVEFPFVKTYSDVDVGKPLSLIGSFGTLELSVREGSAAEMLGIKRGGGWIELEVL | not soluble
4 | MNLLERIKKLAKDRDVSIYQLEEEINIGRNTIYQWNKRTPSSDKLEAVANYFNVSVDYLLGRTENPNQAGAKPSDDLDDVLDNVMSFDGEPLDDHDREVIRAYLKGRFGK | not soluble
5 | MSSPTATKYDVFLSFRGLDTRRNFISFLYKELVRRKIRTFKDDKELENGRRISPELKRAIEESKFAVVVVSVNYAASPWCLDELVKIMDFENKGSITVMPIFYGVDPCHLRRQIGDVAEQFKKHEAREEDHEKVASWRRALTSLASISGECSLKWEDEANLVDEIADKISKNLMTVTTISNGRDLVGIDTHMKALNKKLDLNSNKSLRVVGIWARGYNGRSALAKYVYQDICHWLKVGWLKVYQDIKTASKLYVLTRWLKVAHLLHRSHHSFKTE | soluble
6 | MSLRTSYKIYCTYKNIHAWYDAIKCGIDAAVKELAEKGVTVDYEWYGPAQPDAVDQVNSIETAIGQGWDLIAVDVNQPELTGEAINNAVAKGIPVAVFGTSDVPNCDRAFFVGNTDPYGDGCALAKAVCEKMGGKGQIAILAGTIGALAHEERLRGFKDTIAKYPDIEIVDEQRDNDEVEKAISITESWLQAYPNLGGILCNNMSNPVGACQAVADAGKSGKIVIGGMDHDLRALNALKDGTLYVAQVQNCYDMGYKLIYNAIKTIDGEKVEESTAVGSTSVYAQDADKFINMLYGEANEGHHHHHH | soluble
7 | MALRSVCRWHNGEPAVLSSYGLRVRLSRMEDQCRVLAAAVETLDDVFYVYDADGKLAYWNARLNELFGLTDGELSGMDPTEFFVADDRAAVEAAIEDVFESGQTSVEARAETTEGVVTFELSGRLLTGDDGTVQGFSGVGRDIT | not soluble
8 | MPVELKSFDEFVKVVERAVECRVKRGKDVVKIKARTKRYLYTLKVPPEKEAEVLEQVKAKCKNLVELLEHHHHHHLEHHHHHHLEHHHHHHLEHHHHHHLEHHHHHHLEHHHHHHLEHHHHHH | not soluble
9 | GEFLISILEAIEPEVVYAGYDNSQPDTTNYLLSSLNRLAGKQMVSVVKWAKALPGFRNLHLDDQMTLIQYSWMSLMAFSLGWRSYKHTNGQMLYFAPDLIFNEERMQQSAMYDLCQGMRQISQEFVRLQVTYEEFLCMKVLLLLSTVPKDGLKSQASFDEMRMNYIKELRRAIAKKENNSSQNWQRFYQLTKLLDSMHDLVGGLLQFCFYTFVQSQALSVEFPEMLVEIISDQLPKVMAGMAKPLLFHKK | soluble
